For the experiment, the target named is Vibrio His-FliFG fusion protein (FliF-FliG fusion) with the FliG-G214S mutation (Vibrio alginolyticus). Nature of the experiment: cryo-EM structure.

Where “and” joins values, the source holds several entries; their conditions need not be identical. Equal entries are not always repeated.

Usually stoichiometry N stands for a count of units in the complex or per binding partner.

Turning to “Vibrio His-FliFG fusion protein (FliF-FliG fusion) with the FliG-G214S mutation”, the stoichiometry N was 35 subunits and 34 subunits.

The values are drawn from publication doi:10.1101/2024.04.26.591406.
